{"source": "paper PMC4643347", "key": {"[1]": {"target": "ST50, outer-membrane protein of the multi-drug efflux system from Salmonella enterica serovar Typhi (Salmonella enterica serovar Typhi)", "assay": "SEC; Superdex 200 10/30 GL; Tris 20 mM pH 7.5, NaCl 150 mM, β-DDM 0.2%; major fraction at about 220 kDa (trimer plus detergent micelle)"}, "[2]": {"target": "ST50, outer-membrane protein of the multi-drug efflux system from Salmonella enterica serovar Typhi (Salmonella enterica serovar Typhi)", "assay": "crystal structure; ST50 crystallised by hanging-drop vapor diffusion; sodium acetate 100 mM pH 4.6, NaCl 86 mM, PEG 8000 10.4%, β-OG 0.4%, 18 °C; 2.98 Å; three protomers per asymmetric unit"}}, "data": [{"substance": "ST50, outer-membrane protein of the multi-drug efflux system from Salmonella enterica serovar Typhi (natural protein)", "values": [{"measurement": "stoichiometry N", "setting": "[1]", "value": 3}, {"measurement": "stoichiometry N", "setting": "[2]", "value": 3}]}]}
